Experimental data: patent US20190092871A1 (VIB VZW, published 2019)
Positions count from the first letter of the chain named. One block for each binder: values may come before it.

Molecular target: T1, mouse CD20 (mouse, UniProt P19437 1-291)
T1 construct: whole, on cells; also called mCD20; CHO-K1-mCD20
T1 sequence (looked up): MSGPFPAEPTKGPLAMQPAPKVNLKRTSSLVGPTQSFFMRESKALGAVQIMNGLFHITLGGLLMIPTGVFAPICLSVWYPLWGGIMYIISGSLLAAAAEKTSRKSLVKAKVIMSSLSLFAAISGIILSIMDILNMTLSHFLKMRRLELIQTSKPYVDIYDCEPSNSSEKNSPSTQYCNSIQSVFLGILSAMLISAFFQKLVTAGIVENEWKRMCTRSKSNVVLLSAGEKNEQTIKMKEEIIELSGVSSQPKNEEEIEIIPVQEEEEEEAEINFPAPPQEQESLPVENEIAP
Test: FACS, 5 ug/ml VHH on CHO-K1 cells stably expressing mouse CD20, FITC anti-his detection
Description: To determine the binding activities of the VHHs specific for human or mouse CD20, FACS analysis was carried out. Specifically, CHO-K1 cells and CHO-K1 cells stably expressing human or mouse CD20 were incubated with 5 μg/ml of the VHHs produced in accordance with the application. A monoclonal FITC labelled anti-his antibody (Genscript #A01620) was applied as secondary stain. FACS analysis was done on a FacsCalibur flow cytometer (Becton Dickinson).

binding result: binds
B1: R3MCD137 (VHH)
VHH: QVQLQESGGGSVQAGGSLRLSCAASGSTFSIKAMGWYRQAPGKQRELVAAFISGRGSTKYADSVKGRFAISRDNAKNTMYLQMDSLEPEDTAVYYCYIVLPTGGGSAMDYWGEGTQVTVSS
notes: Whole entry = VHH-AAA-HA-His6 (pMECS construct)

binding result: binds
B2: R3MCD22 (VHH)
VHH: B1 VHH with S11V, E46D, A50G, T58A, E87K, P101T, E113Q
notes: as for B1
